Reference: patent publication US20240150466A1 (DYNAMICURE BIOTECHNOLOGY, published 2024)
Changes are numbered by the printed parent chain. Where two headings read alike, the source gives them in different places. One block for each binder: values may come before it.

What was measured:
[1] = target: T1, mouse IGFBP7 displayed on cells (HEK293T or CHO-K1) (mouse, UniProt Q61581 26-281); experiment: FACS on mIGFBP7-expressing CHO-K1 cells (FIG. 5)
T1 construct: whole, on cells;domain: CD80 transmembrane domain; also called mIGFBP7; mIGFBP7-HEK cells; not shown: linker; CD80 transmembrane domain
T1 sequence (looked up): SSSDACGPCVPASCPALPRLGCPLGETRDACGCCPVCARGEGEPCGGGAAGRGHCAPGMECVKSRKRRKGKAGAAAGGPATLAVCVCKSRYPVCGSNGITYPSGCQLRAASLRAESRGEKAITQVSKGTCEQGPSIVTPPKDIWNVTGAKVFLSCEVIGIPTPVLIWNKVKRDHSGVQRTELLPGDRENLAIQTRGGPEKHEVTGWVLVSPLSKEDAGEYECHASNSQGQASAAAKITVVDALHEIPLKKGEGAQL

[2] = target: T2, cynomolgus IGFBP7 recombinant protein (cynomolgus); experiment: BLI
T2 chain: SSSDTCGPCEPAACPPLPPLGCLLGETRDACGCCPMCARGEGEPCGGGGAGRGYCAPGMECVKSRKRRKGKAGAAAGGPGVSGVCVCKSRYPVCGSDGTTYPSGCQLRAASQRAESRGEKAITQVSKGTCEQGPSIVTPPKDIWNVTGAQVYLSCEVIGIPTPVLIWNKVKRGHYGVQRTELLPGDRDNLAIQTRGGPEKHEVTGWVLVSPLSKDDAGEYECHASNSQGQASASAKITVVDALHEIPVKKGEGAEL

[3] = target: T3, mouse IGFBP7 recombinant protein (mouse, UniProt Q61581 26-281, biotinylated with EZ-LINK NHS-PEG4 biotin in the BLI assays (sites not given)); experiment: BLI
T3 chain: T1 sequence (looked up)

[4] = target: T4, human IGFBP7 recombinant protein (UniProt Q16270 27-282, biotinylated with EZ-LINK NHS-PEG4 biotin in the BLI assays (sites not given)); experiment: BLI
T4 chain: T2 chain with A13S, D215E

[5] = target: T3, mouse IGFBP7 recombinant protein; experiment: BLI
[6] = target: T3, mouse IGFBP7 recombinant protein; experiment: BLI
[7] = target: T4, human IGFBP7 recombinant protein; experiment: BLI
[8] = target: T4, human IGFBP7 recombinant protein; experiment: BLI
[9] = target: T5, human IGFBP7 displayed on HEK293T cells (human, UniProt Q16270 27-282); experiment: flow cytometry on hIGFBP7-HEK cells (FIG. 13)
T5 construct: domain: CD80 transmembrane domain; signal peptide stated as residues 1-26; also called hIGFBP7; hIGFBP7-HEK cells; not shown: linker; CD80 transmembrane domain
T5 sequence: T2 chain with A13S, D215E
Experimental: (§1) After washing with FACS buffer, the cells were incubated with Alexa Fluor 488 conjugated anti-mouse IgG antibody (Jackson ImmunoResearch) for 30 minutes in 4° C. After washing with FACS buffer twice, the samples were acquired in NovoCyte Flow Cytometer and analyzed by NovoExpress software.

[10] = target: T1, mouse IGFBP7 displayed on cells …; experiment: flow cytometry on mIGFBP7-HEK cells (FIG. 13)
Experimental: as §1

[11] = target: T6, human IGFBP7 recombinant protein (human, UniProt Q16270 27-282, biotinylated with EZ-LINK NHS-PEG4 biotin in the BLI assays (sites not given)); experiment: BLI (Octet QKe), biotinylated IGFBP7 on streptavidin biosensors (FIG. 9)
T6 construct: Soluble protein used for ELISA coating and, biotinylated, on streptavidin biosensors (Octet); also called hIGFBP7; biotinylated IGFBP7 protein
T6 sequence: T2 chain with A13S, D215E
Experimental: (§2) The binding affinity of anti-IGFBP7 nanobody Fc-fusion constructs (e.g., VHH-Fc-fusion constructs) were determined with bio-layer interferometry (BLI) using Octet QKe (Fortebio). Human, mouse, and cynomolgus IGFBP7 were biotinylated using EZ-LINK NHS-PEG4 biotin (Thermo Fisher Scientific). Streptavidin biosensors (ForteBio) were used to load biotinylated IGFBP7 protein (300 seconds in 5 μg/mL). Baseline was stabilized for 60 seconds in 1× kinetics buffer (ForteBio) before anti-IGFBP7 Fc-fucion proteins (serial dilution) were allowed to associate for 300 seconds with captured hIGFBP7 or mIGFBP7. Then the sensors were dissociated in 1× kinetics buffer for 600 seconds. Data analysis was performed on ForteBio Data Analysis HT 11.1 software.

[12] = target: T7, mouse IGFBP7 recombinant protein (mouse, UniProt Q61581 26-281, limits assumed, biotinylated with EZ-LINK NHS-PEG4 biotin in the BLI assays (sites not given)); experiment: BLI (Octet QKe), biotinylated IGFBP7 on streptavidin biosensors (FIG. 10)
T7 construct: Soluble protein in ELISA and BLI; also called mIGFBP7
T7 sequence (looked up): T1 sequence (looked up)
Experimental: as §2

binding result [1]: binds
B1: anti-IGFBP7 nanobody Fc-fusion construct derived from D4 (Fc isotype not told) (Fc fusion)
chain: VQLQESGGGLVQTGGSLRLSCAASGRSFTFSSYAMGWFRHAPGKEREFLTAITWSGDYTYYTDSVKGRSTISRDNAKNTVYLQLNNLKPEDTAVYYCAAKFSQVSAFFATVSEYEYWGQGTQVTVSS
notes: may be the same as D4-mIgG2a; not shown: mouse Fc fragment, mIgG2a or mIgG1

Kd [2]: 2.41 nM | Kd [3]: 25.8 nM | Kd [4]: 2.72 nM | Kd [5]: 60.1 nM | Kd [6]: 25.8 nM | Kd [7]: 2.72 nM | Kd [8]: 3.7 nM | binding result [9]: binds | binding result [10]: binds | binding result [11]: binds | binding result [12]: binds
B2: A1-mIgG2a nanobody Fc-fusion (Fc fusion)
chain: VQLQESGGGLVQAGGSLRLSCAASGSLFAIDKWGWYRQVAGNERELVAWRYSPVSINYGDSVKGRFTVSGDSSRKRVYLQMNSLKPDDTAVYRCAAVISGAWYWGQGTQVTVSS
notes: VHH fused with mIgG2a Fc fragment, expressed in Expi293 cells, Protein G purified; also called monoclonal A1-mIgG2a; monospecific A1-mIgG2a; not shown: mouse IgG2a Fc fragment (mIgG2a Fc)

Kd [2]: 0.195 nM | Kd [3]: 1.74 nM | Kd [4]: 0.193 nM | Kd [6]: 1.74 nM | Kd [7]: 0.193 nM | binding result [9]: binds | binding result [10]: binds | binding result [11]: binds | binding result [12]: binds
B3: bispecific anti-IGFBP7 nanobody Fc-fusion construct A1-mIgG2a-D4 (bispecific antibody, V domains shown)
V domain 1: B2 chain
V domain 2: B1 chain
notes: also called A1-mIgG2a-D4-2; not shown: mouse IgG2a Fc fragment (mIgG2a Fc)
